This is an account of results in EP4729546A1 (Jiangsu BioJeTay Biotechnology Co., Ltd., dated 2026).

Changes are numbered by the printed parent chain. Where two headings read alike, the source gives them in different places.

A word on the EC50: it is the midpoint of the concentration-response curve. A low value points to a more potent agent.

In test [1] the target is huFXII-his (human) (UniProt P00748). Description: cell-based or functional assay.
Test [2] has the same target. Kind of test: cell-based or functional assay. The source holds these as a separate data set.
Test [3] has as its target FXIIa (purchased from Enzyme Research Lab) (UniProt P00748). Kind of test: cell-based or functional assay.
In test [4] the target is huFXII-his (human) (UniProt P00748). Kind of test: ELISA, huFXII-his coated at 1 µg/ml, HRP anti-human secondary, OD450. A general note: In an ELISA, binding on a coated surface is turned into a signal by an enzyme label.
In test [5] the target is T1, FXIIa (purchased from Enzyme Research Lab) (UniProt P00748 20-615, limits assumed).
T1 sequence (looked up): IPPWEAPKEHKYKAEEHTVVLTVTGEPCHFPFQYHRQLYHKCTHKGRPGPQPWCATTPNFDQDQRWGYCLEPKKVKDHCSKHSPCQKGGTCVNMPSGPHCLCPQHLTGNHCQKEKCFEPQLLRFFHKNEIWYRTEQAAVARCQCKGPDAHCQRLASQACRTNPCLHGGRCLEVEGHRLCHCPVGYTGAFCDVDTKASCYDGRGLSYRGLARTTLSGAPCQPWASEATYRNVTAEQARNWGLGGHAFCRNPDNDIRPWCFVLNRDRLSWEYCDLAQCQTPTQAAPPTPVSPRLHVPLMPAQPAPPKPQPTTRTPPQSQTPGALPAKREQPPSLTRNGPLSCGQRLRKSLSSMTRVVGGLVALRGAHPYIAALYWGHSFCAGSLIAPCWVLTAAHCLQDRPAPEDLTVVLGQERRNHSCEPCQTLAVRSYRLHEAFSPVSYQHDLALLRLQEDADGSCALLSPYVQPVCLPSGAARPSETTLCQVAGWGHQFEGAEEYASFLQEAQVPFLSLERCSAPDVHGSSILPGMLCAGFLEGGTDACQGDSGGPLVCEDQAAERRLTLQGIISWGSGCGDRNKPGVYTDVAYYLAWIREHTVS
Description: cell-based or functional assay.

The target of test [6] is T2, huFXII-his (human, UniProt P00748 20-615).
T2 sequence (looked up): T1 sequence (looked up)
Description: cell-based or functional assay.

On to CSL312 (antibody), for which the values for the IC50 of inhibition of cleavage of chemical substrate S2302 by FXIIa (OD405) in test [1] and in test [2] were 0.0258 µg/mL and 0.0232 µg/mL, respectively. This molecule also showed an IC50 of inhibition of the cleavage of PK proenzyme (prekallikrein) by FXIIa, read with pKa substrate CS-3102 (OD405) in test [3] of 0.11 µM. Moreover, in test [4], the EC50 is 0.421 µg/mL.

B1: FX-Y39 (antibody, V domains shown)
VH: QVQLQQSGGGLVQTGGSLRLACAGTGFTFSDYSMNWVRQAPGKGLEWVSYISNSRSRSSKYYADSVKGRFTISRDNAKNSLYLQMNSLRAEDTAVYYCARIGYCKNGVCGGAYDYWGQGTLVTVSS
VL: EIVLTQSPSAMSASVGDRVTITCRASQAIRNNLAWFQQKPGKVPKRLMNTASSLESGVPSRFSGSGSGTEFTLTITSLQPEDFASYYCLQYHDSPWTFGQGTKLEIK
With B1, the IC50 of inhibition of cleavage of chemical substrate S2302 by FXIIa (OD405) in test [2] is 0.0398 µg/mL.

B2: FX-Y17 (antibody, V domains shown)
VH: EVQLLESGGGLVQPGGSLRLSCAGSGFSFGSQTMSWVRQAPGKGLEWVSSISVISGRTYYADSVKGRFTISRDNSKNTLYLQMNSLRAEDTAVYYCTKSHAFDVWGQGTMVTVSS
VL: EIVLTQSPATLSVSPGERATLSCRASQSVYSNLAWYQQKPGQAPRLLIYGASTRATGIPARFSGSGSGTEFTLTISSLQSEDFAVYYCQQYNKWPLSFGGGTKVEIK
For the molecule B2, the figures for the IC50 of inhibition of cleavage of chemical substrate S2302 by FXIIa (OD405) in test [1] and in test [2] were 0.0213 µg/mL and 0.0251 µg/mL, respectively.

B3: FX-Y17-Y45 (antibody, V domains shown)
VH: B2 VH with V53H, T97A
VL: B2 VL with N32A, Y91N, K93R
B3: in test [1], the IC50 of inhibition of cleavage of chemical substrate S2302 by FXIIa (OD405) worked out at 0.0221 µg/mL. Also, the “IC50 of inhibition of the cleavage of PK proenzyme (prekallikrein) by FXIIa, read with pKa substrate CS-3102 (OD405)” value (shortened to “IC50 of inhibition of the cleavage … (OD405)”) in test [5] amounted to 0.0235 µM. In test [4], this molecule returned an EC50 of 0.358 µg/mL.

B4: FX-Y17-Y48 (antibody, V domains shown)
VH: B2 VH with T58A, K98R
VL: B2 VL with N32A, N92H
B4: in test [6], the “IC50 of inhibition of cleavage of chemical substrate S2302 by FXIIa (OD405)” value (“IC50 of inhibition of cleavage … (OD405)” for short) worked out at 0.0141 µg/mL.

B5: FX-Y17-Y24 (antibody, V domains shown)
VH: B2 VH with V53Y, S99G
VL: B2 VL with N32A, N92H
For the molecule B5, the “IC50 of inhibition of cleavage … (OD405)” value in test [6] stood at 0.0166 µg/mL.

B6: FX-Y17-Y42 (antibody, V domains shown)
VH: B2 VH with F29L, T58M
VL: B2 VL with N32A, N92H
Take B6: in test [6], the “IC50 of inhibition of cleavage … (OD405)” value worked out at 0.0177 µg/mL.

B7: FX-Y17-Y50 (antibody, V domains shown)
VH: B2 VH with T58R
VL: B2 VL with N32A, N92H
Turning to B7, the “IC50 of inhibition of cleavage … (OD405)” value in test [6] worked out at 0.0225 µg/mL.

B8: FX-Y17-Y41 (antibody, V domains shown)
VH: B2 VH with T58R, T97A
VL: B2 VL with N32A, N92H
As for B8, the “IC50 of inhibition of cleavage … (OD405)” value in test [6] came to 0.019 µg/mL.

B9: FX-Y17-Y51 (antibody, V domains shown)
VH: B2 VH with T58N, K98R
VL: B2 VL with N32A, N92H
As to B9, in test [6], the “IC50 of inhibition of cleavage … (OD405)” value was 0.0155 µg/mL.

B10: FX-Y17-Y47 (antibody, V domains shown)
VH: B2 VH with T58D, K98R
VL: B2 VL with N32A, N92H
B10: the “IC50 of inhibition of cleavage … (OD405)” value in test [6] was 0.0179 µg/mL.

B11: FX-Y17-Y34 (antibody, V domains shown)
VH: B2 VH with G56R, K98R
VL: B2 VL with Y30W, N92H
Consider B11, for which, in test [6], the “IC50 of inhibition of cleavage … (OD405)” value was determined as 0.0282 µg/mL. Also, the “IC50 of inhibition of the cleavage … (OD405)” value in test [5] came out at 0.0271 µM.

B12: FX-Y17-Y43 (antibody, V domains shown)
VH: B2 VH with I51S, K98R
VL: B2 VL with N32A, N92H
For B12, the “IC50 of inhibition of cleavage … (OD405)” value in test [6] worked out at 0.0146 µg/mL.

B13: FX-Y17-Y4 (antibody, V domains shown)
VH: B2 VH with I51S, S52H
VL: B2 VL with S31Y, N92H
In test [1], B13 came in with an IC50 of inhibition of cleavage of chemical substrate S2302 by FXIIa (OD405) of 0.0116 µg/mL. For the same molecule, in test [5], the “IC50 of inhibition of the cleavage … (OD405)” value worked out at 0.0306 µM. Also, the EC50 in test [4] was determined as 0.205 µg/mL.

B14: FX-Y17-Y26 (antibody, V domains shown)
VH: B2 VH
VL: B2 VL with N32A, N92H
In the case of B14, the “IC50 of inhibition of cleavage … (OD405)” value in test [6] came out at 0.0163 µg/mL.
